The source of these data is the DeepSol protein solubility set.

The data set can be described thus: soluble on expression in E. coli; label from the status in PepcDB or PDB records.
In the case of “MTKRGPDDLQLSLRNGVGGASTTAPGVAAAAYYANVMTADSEPKKAKLDPTLYSSQFYTPAMHHGLMTADASTVAAVTAAANATTAQLLTGNPITQIQGIQLSTLPQCNSTSAVTSIPVSKVVHVRNIPPDLVDVELMQLCIQYGPVSNYMMLKGKSQAFVEYEEEASAAAFVSGMTAVPIQIRGRTLFAQYSTHRELKFDKNKAISDTESVANGSVSNFEVGTQQQPNSVLRTIIENMMFPVSLDVLYQLFTRYGKVLRIITFNKNNTFQALVQMSEANSAQLAKQGLENQNVYNGCCTLRIDYSKLSTLNVKYNNDKSRDYTNPNLPAGEMTLEQTIAMSIPGLQNLIPANPYNFAFGANPATTFLTTQLAASTAAAAAVNDSANAAALAPYLNPLGLTSANLAPSISSMRFPMINLTPVILVSNLHEMKVTTDALFTLFGVYGDVMRVKILYNKKDNALIQYSEPQQAQLALTHLDKVKWHDRLIRVAPSKHTNVQMPKEGQPDAGLTRDYAHSTLHRFKKPGSKNYLNIYPPCATLHLSNIPTSVSEEKLKEMFAEAGFAVKAFKFFPKDHKMALCQLEDIETAIDALIAMHNHKLAENAHLRVSFSKSGI”, the “soluble on expression in E. coli” value was “not soluble”.
“MTKSLPGVADLRLGANHPRMWTRRVQGTVVNVGVKVLPWIPTPAKRILSAGRSVIIDGNTLDPTLQLMLSTSRIFGVDGLAVDDDIVASRAHMRAICEAMPGPQIHVDVTDLSIPGPAGEIPARHYRPSGGGATPLLVFYHGGGWTLGDLDTHDALCRLTCRDADIQVLSIDYRLAPEHPAPAAVEDAYAAFVWAHEHASDEFGALPGRVAVGGDSAGGNLSAVVCQLARDKARYEGGPTPVLQWLLYPRTDFTAQTRSMGLFGNGFLLTKRDIDWFHTQYLRDSDVDPADPRLSPLLAESLSGLAPALIAVAGFDPLRDEGESYAKALRAAGTAVDLRYLGSLTHGFLNLFQLGGGSAAGTNELISALRAHLSRV”: the “soluble on expression in E. coli” value is reported as “soluble”.
With “MTKTSKASGLSWFFCDLDGTLLRYQNNQHLIEPTTKRAVAQLVESGANFVVATGRKPSDVRNIYKELGIEQASPYLIANNGAVVWDLKRNSYLNKQTLSLSDFDLIDHINQTLNQLNHEYGCILYGLNDQVYFYHIHAPDSQAFKQYFAFYEGEFVQNQYLEIDGLKTEYNLVKAIWFFKEVHQQKAVIAQHFTNQERLVITSAHSFELVPLNVSKGHAINLIKQQVKITDNQIMVLGDSYNDLPMFQHGVVKVTNHLAPDNLKQLATRVYELPASLFVGQALNDYFKFD”, the “soluble on expression in E. coli” value is on record as “not soluble”.
Then “MTKYALVGDVGGTNARLALCDIASGEISQAKTYSGLDYPSLEAVVRVYLDEHSVSVEDGCIAIACPITGDWVAMTNHTWAFSIAEMKKNLGFSHLEIINDFTAVSMAIPMLKKEHLIQFGGGEPVDGKPIAVYGAGTGLGVAHLVHVDKRWISLPGEGGHVDFAPNSEEEAMILEILRAEIGHVSAERVLSGPGLVNLYRAIVKSDNRLPENLRPKDITERALADSCIDCRRALSLFCVIMGRFGGDLALTMGTFGGVYIAGGIVPRFLEFFKASGFRGGFEDKGRFKDYVHGIPVYLIVHDNPGLLGSGAHLRQTLGHIL”, with “not soluble”; and “MTLELLQAQAQNCTACRLMEGRTRVVFGEGNPDAKLMIVGEGPGEEEDKTGRPFVGKAGQLLNRILEAAGIPREEVYITNIVKCRPPQNRAPLPDEAKICTDKWLLKQIELIAPQIIVPLGAVAAEFFLGEKVSITKVRGKWYEWHGIKVFPMFHPAYLLRNPSRAPGSPKHLTWLDIQEVKRALDALPPKERRPVKAVSQEPLF”, with “soluble”.
Then “MTLHLPGADGTLRAYEPRTEPLPTLRATSGSAFSSRTVFSAAHVVADPYADTTPDGPAAVDWDATLAFRRHLWSHGLGVAEAMDTAQRGMGLDWPTAAELIRRSAAEARATGGRIACGVGTDQLTATAATLADVRSAYEEQLAVVEESGAQAILMASRALAATAKGPDDYLEVYGHLLRQAAEPVILHWLGPMFDPALEGYWGSSDLDAATDTFLEVIAAHPDKVDGIKVSLLDAQREIDLRRRLPRGVRCYTGDDFNYPELIAGDEQGFSHALLGIFDPLGPLAAEAVRVLDTGDTDGFRALLDPTVELSRHLFRAPTRYYKTGVVFLAWLAGHQSHFTMVGGLQSARSLPHLARAYELADGLGLFPDPKPAEERMRNLLALYGVN”, with “not soluble”; and “MTLKGMSYVMCTGSFKLEKEVAETQHGTVLVQVKYEGTDAPCKIPFSTQDEKGATQNGRLITANPIVTDKEKPVNIEAEPPFGESYIVVGAGEKALKLSWFKKGSSIG”, with “soluble”; and “MTLMKSNLIAAAEIDRLDTWAKYTAPMCGSCMSSCCTLPVEVKIKDLIRIGIVDEFERGEPAKNIAKRLQKEGIVERYNQKSEIFTLQRMSNNDCLYLDRKSRLCTIYDKRPDTCRNHPKIGPRPGYCAYKPKPQVRPTNTSSRTLERFLEHHHHHH”, with “not soluble”.
With “MTLSAIQPNDMALYHYDSCPFCAKTRHAINELDLNIELRNIQKNHQHRIELQQGGNKTQVPCLRIGQSNGKAQWLYESGDIINFLRNRK”, the “soluble on expression in E. coli” value is “not soluble”.
Then “MTLTRGSFTYSSGEEYTGEWKEGRRHGKGELKFADGTCYKGHFENGLFHGSGVLVFPDGSRYEGEFAQGKFQGVGIFSRFDGMKFEGEFKSGRVEGHGLLTFPDGSHGAPRNEGMFENNKLLKREKCQAVVQRAKNSASTARGLSV”, with “soluble”; and “MTLTSDDLRQIAALTLAHYDDNAVSFEVGTRDHDVSQNIAALLRHIQGDPPYAILDFGCGPGRDLKTFAALGHAAVGLDGAAHFVAMAHQATGCEVWQQDFLRLALPAGRFDGIFANASLFHVPTQELPRVLGELRDTLKPGGVLFCSNPRGGNEEGWSRGRYGVWHDWESWRALLEAAGFQALEHYYRPAGLPREQQQWLASVWRRLEHHHHHH”, with “soluble”; and “MTLYEYDGSHVRKRVFQNTSWIFVTGDRYDIETLYDQLDSTRLKYEYSTMPDIYGYQDGIKIWVRPSHARMVGEIIFSNIGYGRRYRVYNADIDPVLRFMASNGLSFFEMRSVYDPDPDLNVAMVDCSHGKCIVDGEAMGDGRIYDRLMDSHVIVYEGTEQFYRKLMALGIRARYYPGKSFTSYGQISYRDSYLDIADRIAINSRSFFYAESGLSGIYEVSRISHLPPLYVSIVTPGTAVSSMELAEAVKKGMLVPFKKDDHENPKTKWEIMAKDRGGLIFQPLPGLYTDVYEIDFSSMYPSIIVRYDLTPGRISFLPEALEGLLSRRLIYKKMDGESVVYHSRNVALKWLLLTSFGYTGYKNAKFGKIEVHERITELGRKALAEAIAVAHENGFEMIHGIVDSLWIRGSGSIERVVSEISRRTRIDIVVSGHYHWIAFLPERDGTGSPSRYIGLDTSGKYKIRGLMIRRSDVPDLCKAFQMDALRVLSSCTDTRCILEKRREIMDLENYYLRNIRHFPRSYFMVSRKITRRPDEYHVKNLTRSALDLCRDAEELSPGQMISYYVVDEKRKIVDTDGENGIDYGYYRRCLTRALEEINFLFGKNCNIRRLEDFQSFQ”, with “not soluble”.
Turning to “MTNSNRRKFLKATGVGLLGGLAGCTRGGDSSGGDGSDGSSDGSDGSGGSDGGTSTSGSDGELAIPLSEYEDADIDWRQFEGSSINIGAVQHPWVSAIKPAVPVFEELTGIDVVWNVLPEQQFRTKRQTDVSTGAGQFDVFYMDQVVNQFREEGWIQPLDPFFDDDSLFDEDWYEPDDLFEASRWQAHGGGYSDTWTGMPITVEVQTQFYRKDLYDKHDLEVAETLEQFRQNAQTIHENESDVVGTVGRGDKGYGMNIYILNTFLREFGTSLWTEFPTDSGLDSDGVINAAEWYVSLLQDYGPEGASTQTWSDVLSTMQEGRAGHIVSDANLFWPGLTGSDSSVADNIGIAKAPSPADGQFSPNAFNWQISTSKNAQNSEQAFLFMVWASSQPTNTWMHVEGDAAFSVRQSVWENDEFRSRVGENFAQVTLESLQEAAPDPFDRKYPQWGQRYSEELQRAIAGQKSAEEAMTKAASVAEDIYSN”, the “soluble on expression in E. coli” value was “not soluble”.
As to “MTPEAAYQNLLEFQRETAYLASLGALAAWDQRTMIPKKGHEHRARQMAALARLLHQRMTDPRIGEWLEKVEGSPLVQDPLSDAAVNVREWRQAYERARAIPERLAVELAQAESEAESFWEEARPRDDWRGFLPYLKRVYALTKEKAEVLFALPPAPGDPPYGELYDALLDGYEPGMRARELLPLFAELKEGLKGLLDRILGSGKRPDTSILHRPYPVEAQRRFALELLSACGYDLEAGRLDPTAHPFEIAIGPGDVRITTRYYEDFFNAGIFGTLHEMGHALYEQGLPKEHWGTPRGDAVSLGVHESQSRTWENLVGRSLGFWERFFPRAREVFASLGDVSLEDFHFAVNAVEPSLIRVEADEVTYNLHILVRLELELALFRGELSPEDLPEAWAEKYRDHLGVAPKDYKDGVMQDVHWAGGLFGYFPTYTLGNLYAAQFFQKAEAELGPLEPRFARGEFQPFLDWTRARIHAEGSRFRPRVLVERVTGEAPSARPFLAYLEKKYAALYG”, the “soluble on expression in E. coli” value was “soluble”.
Under “MTPEIKVKSMRSVGTQVDVQCITYGLAGFDSVFKHCGVFSGEEHNVSSIWKGPVRMVERKTETESFEISQYGETVFKPSLQLLVGTSDEIAFSLLRHVFSKMDIIELRHYLQVLGFEKTFNLMYNLGEEFIEGEIPVDERILLDEIEALESFTVSNMTIEEEIEARRVERLALKFVEEMYNPDTENDEQIALLLHSEMNDENGDNDLIEEDYFNIANLEESFPGTNKKVVREAYNIAGRKVDFTREILLSNGEVENTYAVKLKPKPTWSKKVASSPSPLRLSLPKKSKKEEENHFLKKRSGRHSQLEEIQLLAIRTRQKIEADRITSSNSMAAAKYRQLIIVDRASRMKIEKSSEVKELDRKIREAHNNPWFLDLHYMSVDGAVKLVKEAIEAVKYHLKAARNLDRRITVVTGSGNNSKCGAKIKPQVLAMLQHNDYNYELVNDGCIRFKV” stands “not soluble”; under “MTPHVMKRDGCKVPFKSERIKEAILRAAKAAEVDDADYCATVAAVVSEQMQGRNQVDINEIQTAVENQLMSGPYKQLARAYIEYRHDRDIEREKRGRLNQEIRGLVEQTNASLLNENANKDSKVIPTQRDLLAGIVAKHYARQHLLPRDVVQAHERGDIHYHDLDYSPFFPMFNCMLIDLKGMLTQGFKMGNAEIEPPKSISTATAVTAQIIAQVASHIYGGTTINRIDEVLAPFVTASYNKHRKTAEEWNIPDAEGYANSRTIKECYDAFQSLEYEVNTLHTANGQTPFVTFGFGLGTSWESRLIQESILRNRIAGLGKNRKTAVFPKLVFAIRDGLNHKKGDPNYDIKQLALECASKRMYPDILNYDQVVKVTGSFKTPMGCRSFLGVWENENGEQIHDGRNNLGVISLNLPRIALEAKGDEATFWKLLDERLVLARKALMTRIARLEGVKARVAPILYMEGACGVRLNADDDISEIFKNGRASISLGYIGIHETINALFGGEHVYDNEQLRAKGIAIVERLRQAVDQWKEETGYGFSLYSTPSENLCDRFCRLDTAEFGVVPGVTDKGYYTNSFHLDVEKKVNPYDKIDFEAPYPPLANGGFICYGEYPNIQHNLKALEDVWDYSYQHVPYYGTNTPIDECYECGFTGEFECTSKGFTCPKCGNHDASRVSVTRRVCGYLGSPDARPFNAGKQEEVKRRVKHLGNGQIG”, “not soluble”; under “MTPIPFFNHMLITLLTYMNSTAIVSATDKLPYDDHHIVEDVAITLGLAIKTALGDKRGIKRFSHQIIPMDDALVLVSLDISNRGMAFVNLNLKRSEIGGLATENVPHFFQSFAYNSGITLHISQLSGYNTHHIIEASFKALGLALY”, “soluble”.
Under “MTPLPVTVIGGYLGAGKTTLVNHLLRHAAGRRLAVLVNEFGDLPIDADLIEAEEDGMISIAGGCICCSFGSDLIGALNDLAAMEPRPDHILVESSGVAIPGAIVSTMLLADGIRSDGIVVVVDGETVRQRAQDDYVGDTITRQLSDAEIVVVNKTDLLAHAVQTELMEWLAEAAPGAIAIPAERGRVAPGALLGVLPAPGTGQPAHHSDRLFDSLVLAPEGGQPIERLARDLATGPHGVIRAKGYLRDIEGALWLIQTVGRRWEVTPAQGPHQTGLVCIGFRDRLDRSGLAALAGATV” stands “not soluble”.
